fluorescein = fluorescein label on the side chain of the C-terminal Lys
Each binder was assayed against T1, mouse cMet (mouse, UniProt P16056 25-931, limits assumed) (assay: fluorescence polarization, mouse target).
T1 construct: Construct not described; also called Kd (mouse) target
Procedure: (§1) Fluorescence anisotropy measurements were performed in 384-well microplates in a volume of 10 μL in binding buffer (PBS, 0.01% Tween-20, pH 7.5) using a Tecan Polarion fluorescence polarization plate reader ([…]). […] Binding mixtures were equilibrated for 10 minutes in the microplate at 30 C before measurement. The observed change in anisotropy was fit to the equation below via nonlinear regression to obtain the apparent KD. This equation (1) assumes that the synthetic peptide and cMet form a reversible complex in solution with 1:1 stoichiometry.

T1 sequence (P16056 25-931 limits assumed): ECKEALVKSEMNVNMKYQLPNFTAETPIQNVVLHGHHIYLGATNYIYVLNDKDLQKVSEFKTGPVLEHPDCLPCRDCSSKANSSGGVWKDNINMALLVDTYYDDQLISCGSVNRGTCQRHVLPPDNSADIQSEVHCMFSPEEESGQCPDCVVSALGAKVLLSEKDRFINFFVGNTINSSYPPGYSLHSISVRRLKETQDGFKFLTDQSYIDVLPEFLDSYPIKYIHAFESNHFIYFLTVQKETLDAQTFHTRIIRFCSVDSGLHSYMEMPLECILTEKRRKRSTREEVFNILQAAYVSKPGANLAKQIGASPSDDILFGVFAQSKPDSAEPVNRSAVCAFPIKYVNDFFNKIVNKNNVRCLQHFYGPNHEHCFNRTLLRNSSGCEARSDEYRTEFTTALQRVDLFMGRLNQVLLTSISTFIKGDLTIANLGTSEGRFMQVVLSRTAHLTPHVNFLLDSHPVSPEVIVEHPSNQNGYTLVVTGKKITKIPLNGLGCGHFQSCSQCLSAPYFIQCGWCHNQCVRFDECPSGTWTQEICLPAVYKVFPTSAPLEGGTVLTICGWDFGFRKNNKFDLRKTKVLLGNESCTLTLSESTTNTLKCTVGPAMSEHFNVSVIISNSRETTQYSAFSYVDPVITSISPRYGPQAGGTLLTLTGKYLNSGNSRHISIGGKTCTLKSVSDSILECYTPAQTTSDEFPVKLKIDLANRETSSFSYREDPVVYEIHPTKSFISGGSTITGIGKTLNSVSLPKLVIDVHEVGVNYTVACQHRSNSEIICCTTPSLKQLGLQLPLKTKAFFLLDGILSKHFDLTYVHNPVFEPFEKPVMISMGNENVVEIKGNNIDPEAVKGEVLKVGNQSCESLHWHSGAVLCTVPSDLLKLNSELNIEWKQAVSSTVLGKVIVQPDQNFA

Binder	Kd
Ac-AGSWHCAGPPSFECWEFGTGGGK(fluorescein)-NH2 (cysteine pairing not given here) [331-G04 synthetic fluorescein-labeled peptide (SEQ ID NO: 055)]	1100 nM
Ac-GSWIICWWDNCGSSAPGGGK(fluorescein)-NH2 (cysteine pairing not given here) [571-C05 synthetic fluorescein-labeled peptide (SEQ ID NO: 001)]	3500 nM

These binders were tested against T2, cMet-Fc fusion protein (extracellular domain of the cMet receptor expressed as an Fc-fusion protein) (human, UniProt P08581 25-932) (assay: fluorescence polarization, 20 nM fluorescein peptide, cMet-Fc varied).
T2 construct: extracellular domain; also called soluble cMet-Fc-fusion protein; soluble cMet receptor; not shown: Fc part
T2 sequence (P08581 25-932): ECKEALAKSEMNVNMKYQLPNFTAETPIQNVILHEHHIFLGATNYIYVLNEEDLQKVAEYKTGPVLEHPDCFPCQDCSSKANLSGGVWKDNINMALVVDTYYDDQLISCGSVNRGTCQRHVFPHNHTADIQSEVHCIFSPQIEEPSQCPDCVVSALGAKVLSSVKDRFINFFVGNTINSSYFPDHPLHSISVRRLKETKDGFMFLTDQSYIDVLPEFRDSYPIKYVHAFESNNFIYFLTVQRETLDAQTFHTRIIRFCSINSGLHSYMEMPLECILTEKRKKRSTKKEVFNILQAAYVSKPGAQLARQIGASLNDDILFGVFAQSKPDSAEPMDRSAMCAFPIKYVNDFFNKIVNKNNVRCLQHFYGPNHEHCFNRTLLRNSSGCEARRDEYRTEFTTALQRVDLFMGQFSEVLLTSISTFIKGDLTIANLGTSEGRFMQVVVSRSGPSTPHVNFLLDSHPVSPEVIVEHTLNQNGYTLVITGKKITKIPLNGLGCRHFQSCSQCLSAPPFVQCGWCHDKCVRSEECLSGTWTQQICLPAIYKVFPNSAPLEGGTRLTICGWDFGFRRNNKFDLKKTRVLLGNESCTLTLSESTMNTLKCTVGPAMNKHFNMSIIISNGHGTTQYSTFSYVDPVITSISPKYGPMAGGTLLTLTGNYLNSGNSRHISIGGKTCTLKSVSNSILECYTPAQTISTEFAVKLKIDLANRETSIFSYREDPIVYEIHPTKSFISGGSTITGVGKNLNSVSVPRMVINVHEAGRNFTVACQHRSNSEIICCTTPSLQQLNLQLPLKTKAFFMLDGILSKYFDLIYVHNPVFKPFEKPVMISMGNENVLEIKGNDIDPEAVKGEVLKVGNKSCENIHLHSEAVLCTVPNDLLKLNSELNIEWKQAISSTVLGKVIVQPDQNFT
Procedure: as §1

Binder	Kd
Ac-AQPYYELQDADMLLVVALLSTGGGGK(fluorescein)-NH2 [94-F07 synthetic fluorescein-labeled peptide (SEQ ID NO: 458)]	3750 nM
Ac-AGSIQCVGPPSFECTPYGTGGGK(fluorescein)-NH2 (cysteine pairing not given here) [335-D11 synthetic fluorescein-labeled peptide (SEQ ID NO: 074)]	3300 nM
Ac-AGWISCAGPPTFACWPGGTGGGK(fluorescein)-NH2 (cysteine pairing not given here) [548-F06 synthetic fluorescein-labeled peptide (SEQ ID NO: 056)]	2700 nM
Ac-AQHQYGQMMVLHIQYDMGEFIPGGGK(fluorescein)-NH2 [117-F08 synthetic fluorescein-labeled peptide (SEQ ID NO: 462)]	> 2000 nM
Ac-AGGWECTGPPWFQCGYYGTGGGK(fluorescein)-NH2 (cysteine pairing not given here) [334-C08 synthetic fluorescein-labeled peptide (SEQ ID NO: 067)]	1650 nM
Ac-AQVPDWLSAVVIEKLIEYGMMVGGGK(fluorescein)-NH2 [93-C08 synthetic fluorescein-labeled peptide (SEQ ID NO: 464)]	> 2000 nM
Ac-AGDIVCTGHPYFECWSWGTGGGK(fluorescein)-NH2 (cysteine pairing not given here) [333-C05 synthetic fluorescein-labeled peptide (SEQ ID NO: 068)]	2800 nM
Ac-AGSWHCAGPPSFECWEFGTGGGK(fluorescein)-NH2 (cysteine pairing not given here) [331-G04 synthetic fluorescein-labeled peptide (SEQ ID NO: 055)]	900 nM
Ac-AQRWSSPGMSQSFVLEWKWNDNGGGK(fluorescein)-NH2 [118-A08 synthetic fluorescein-labeled peptide (SEQ ID NO: 453)]	> 2000 nM
Ac-AQYDTWVFQFIHEVPGELVAMQGGGK(fluorescein)-NH2 [94-E08 synthetic fluorescein-labeled peptide (SEQ ID NO: 454)]	930 nM
Ac-AGEWWCHGPPEFLCYWTGTGGGK(fluorescein)-NH2 (cysteine pairing not given here) [331-F01 synthetic fluorescein-labeled peptide (SEQ ID NO: 072)]	980 nM
Ac-AQGFELWVDHTRNFFIAISPGGGK(fluorescein)-NH2 [127-A07 synthetic fluorescein-labeled peptide (SEQ ID NO: 469)]	2400 nM
Ac-AGWFQCKGPPSFECERHGTGGGK(fluorescein)-NH2 (cysteine pairing not given here) [336-G04 synthetic fluorescein-labeled peptide (SEQ ID NO: 051)]	3200 nM
Ac-AQREVEEPYWYLDFLSSWRMHEGGGK(fluorescein)-NH2 [524-E09 synthetic fluorescein-labeled peptide (SEQ ID NO: 451)]	2000 nM
Ac-AQHSVQRQMDVWMPVQFMAGFTGGGK(fluorescein)-NH2 [02-B08 synthetic fluorescein-labeled peptide (SEQ ID NO: 467)]	> 2000 nM
Ac-AQDLKPWTAGWEPPWLWTDRGPGGGK(fluorescein)-NH2 [104-C09 synthetic fluorescein-labeled peptide (SEQ ID NO: 461)]	> 2000 nM
Ac-AGWTHCIGPPTFECIPMGTGGGK(fluorescein)-NH2 (cysteine pairing not given here) [334-G06 synthetic fluorescein-labeled peptide (SEQ ID NO: 052)]	2700 nM
Ac-AQVEDMATVHFKFNPATHEVIWGGGK(fluorescein)-NH2 [524-H02 synthetic fluorescein-labeled peptide (SEQ ID NO: 492)]	800 nM

Binder	Kd
Ac-AGYTSCVGPPSFECTPYGTGGGK(fluorescein)-NH2 (cysteine pairing not given here) [323-A11 synthetic fluorescein-labeled peptide (SEQ ID NO: 059)]	4300 nM
Ac-AGNWICTGPPSFGCWYHGTGGGK(fluorescein)-NH2 (cysteine pairing not given here) [331-G06 synthetic fluorescein-labeled peptide (SEQ ID NO: 078)]	2900 nM
Ac-AGSFACKGPPTFACVEFGTGGGK(fluorescein)-NH2 (cysteine pairing not given here) [330-B07 synthetic fluorescein-labeled peptide (SEQ ID NO: 053)]	2900 nM
Ac-AQSPYIFPIDDSGRQIFVIQWGGGGK(fluorescein)-NH2 [76-D09 synthetic fluorescein-labeled peptide (SEQ ID NO: 463)]	> 2000 nM
Ac-AQRPEAHYKLAMSYPIIPRTKTGGGK(fluorescein)-NH2 [96-H12 synthetic fluorescein-labeled peptide (SEQ ID NO: 452)]	> 2000 nM
Ac-AQHWDYDSGSDFWFPVFFLEHHGGGK(fluorescein)-NH2 [79-B02 synthetic fluorescein-labeled peptide (SEQ ID NO: 475)]	1900 nM
Ac-AQKETWEFFDIVYGSGWKFNSPGGGK(fluorescein)-NH2 [116-H02 synthetic fluorescein-labeled peptide (SEQ ID NO: 466)]	> 2000 nM
Ac-GDYDYCDFDLETYIPECHSYDPGGGK(fluorescein)-NH2 (cysteine pairing not given here) [546-G02 synthetic fluorescein-labeled peptide (SEQ ID NO: 390)]	1500 nM
Ac-AQQASRFTFTDGDSYWWFEDFGGGK(fluorescein)-NH2 [525-A07 synthetic fluorescein-labeled peptide (SEQ ID NO: 449)]	6900 nM
Ac-AGHWICVGPPTFSCQWHGTGGGK(fluorescein)-NH2 (cysteine pairing not given here) [330-G09 synthetic fluorescein-labeled peptide (SEQ ID NO: 071)]	1850 nM
Ac-AQVGSPMLPSWFSFEANWSSGGGK(fluorescein)-NH2 [95-A11 synthetic fluorescein-labeled peptide (SEQ ID NO: 456)]	2300 nM
Ac-AQWPHDGLVHWGEVIMLRFGGGK(fluorescein)-NH2 [117-F04 synthetic fluorescein-labeled peptide (SEQ ID NO: 479)]	1700 nM
Ac-AGHAWCSGPPRFECWPPGTGGGK(fluorescein)-NH2 (cysteine pairing not given here) [329-D02 synthetic fluorescein-labeled peptide (SEQ ID NO: 061)]	5200 nM
Ac-AQIQGIQKTEQGEFYWFNWFPAGGGK(fluorescein)-NH2 [528-F05 synthetic fluorescein-labeled peptide (SEQ ID NO: 450)]	2700 nM
Ac-GDDFHCEFIDDYQSEICYFNDPGGGK(fluorescein)-NH2 (cysteine pairing not given here) [333-C03 synthetic fluorescein-labeled peptide (SEQ ID NO: 391)]	1800 nM
Ac-GSWIICWWDNCGSSAPGGGK(fluorescein)-NH2 (cysteine pairing not given here) [571-C05 synthetic fluorescein-labeled peptide (SEQ ID NO: 001)]	200 nM
Ac-AGSIQCKGPPWFSCAMYGTGGGK(fluorescein)-NH2 (cysteine pairing not given here) [325-H05 synthetic fluorescein-labeled peptide (SEQ ID NO: 048)]	3500 nM
Ac-AQVGTAEAIMFSDVEDTGVHKFGGGK(fluorescein)-NH2 [103-G08 synthetic fluorescein-labeled peptide (SEQ ID NO: 459)]	> 2000 nM

— patent US20120039802A1 (published 2012)
